Reference: article PMC6525511

Target: RIG-5 (construct not stated; SPR) (C. elegans)
Assay: SPR

Kd: 10 µM
Substance: ZIG-8 (purified; construct not stated; SV-AUC and SPR) (from UniProt G5ED00 22-251) (natural protein)
